# Measured values from IntAct's records for PubMed 31515488.
# B1: Chorion-specific transcription factor GCMb (Homo sapiens), O75603 (parent)
# chain: MPAAAVQEAVGVCSYGMQLSWDINDPQMPQELALFDQFREWPDGYVRFIYSSDEKKAQRHLSGWAMRNTNNHNGHILKKSCLGVVVCTQACTLPDGSRLQLRPAICDKARLKQQKKACPNCHSALELIPCRGHSGYPVTNFWRLDGNAIFFQAKGVHDHPRPESKSETEARRSAIKRQMASFYQPQKKRIRESEAEENQDSSGHFSNIPPLENPEDFDIVTETSFPIPGQPCPSFPKSDVYKATCDLATFQGDKMPPFQKYSSPRIYLPRPPCSYELANPGYTNSSPYPTLYKDSTSIPNDTDWVHLNTLQCNVNSYSSYERSFDFTNKQHGWKPALGKPSLVERTNHGQFQAMATRPYYNPELPCRYLTTPPPGAPALQTVITTTTKVSYQAYQPPAMKYSDSVREVKSLSSCNYAPEDTGMSVYPEPWGPPVTVTRAASPSGPPPMKIAGDCRAIRPTVAIPHEPVSSRTDEAETWDVCLSGLGSAVSYSDRVGPFFTYNNEDF
# partner: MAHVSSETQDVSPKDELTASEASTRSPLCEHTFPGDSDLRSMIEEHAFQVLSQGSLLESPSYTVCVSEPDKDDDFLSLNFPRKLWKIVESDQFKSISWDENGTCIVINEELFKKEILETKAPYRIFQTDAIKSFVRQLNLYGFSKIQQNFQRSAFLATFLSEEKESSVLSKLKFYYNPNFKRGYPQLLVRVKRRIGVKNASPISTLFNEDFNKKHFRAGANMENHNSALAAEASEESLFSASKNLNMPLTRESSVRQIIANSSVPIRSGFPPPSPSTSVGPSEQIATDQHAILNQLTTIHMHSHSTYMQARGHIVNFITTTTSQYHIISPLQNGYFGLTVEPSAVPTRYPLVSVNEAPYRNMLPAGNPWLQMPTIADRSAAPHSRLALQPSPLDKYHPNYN
# B2: Nucleoplasmin-3 (Homo sapiens), O75607 (parent)
# chain: MAAGTAAALAFLSQESRTRAGGVGGLRVPAPVTMDSFFFGCELSGHTRSFTFKVEEEDDAEHVLALTMLCLTEGAKDECNVVEVVARNHDHQEIAVPVANLKLSCQPMLSLDDFQLQPPVTFRLKSGSGPVRITGRHQIVTMSNDVSEEESEEEEEDSDEEEVELCPILPAKKQGGRP
# partner: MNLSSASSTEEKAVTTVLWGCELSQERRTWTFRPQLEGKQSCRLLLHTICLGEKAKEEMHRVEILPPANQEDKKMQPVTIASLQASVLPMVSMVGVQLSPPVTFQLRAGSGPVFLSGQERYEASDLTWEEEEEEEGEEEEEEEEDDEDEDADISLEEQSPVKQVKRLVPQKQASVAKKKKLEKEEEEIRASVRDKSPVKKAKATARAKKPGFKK
# B3: Dynein light chain 2, cytoplasmic (Homo sapiens), Q96FJ2 (parent)
# chain: MSDRKAVIKNADMSEDMQQDAVDCATQAMEKYNIEKDIAAYIKKEFDKKYNPTWHCIVGRNFGSYVTHETKHFIYFYLGQVAILLFKSG
# partner: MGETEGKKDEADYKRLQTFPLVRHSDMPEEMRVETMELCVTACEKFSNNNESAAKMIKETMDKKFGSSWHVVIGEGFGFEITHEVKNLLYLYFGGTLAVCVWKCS
# B4: Protein BANP (Homo sapiens), Q8N9N5-2 (parent)
# chain: MMSEHDLADVVQIAVEDLSPDHPVVLENHVVTDEDEPALKRQRLEINCQDPSIKSFLYSINQTICLRLDSIEAKLQALEATCKSLEEKLDLVTNKQHSPIQVPMVAGSPLGATQTCNKVRCAVPGRRQNTIVVKVPGQEDSHHEDGESGSEASDSVSSCGQAGSQSIGSNVTLITLNSEEDYPNGTWLGDENNPEMRVRCAIIPSDMLHISTNCRTAEKMALTLLDYLFHREVQAVSNLSGQGKHGKKQLDPLTIYGIRCHLFYKFGITESDWYRIKQSIDSKCRTAWRRKQRGQSLAVKSFSRRTPNSSSYCPSEPMMSTPPPASELPQPQPQPQALHYALANAQQVQIHQIGEDGQVQVIPQGHLHIAQVPQGEQVQITQDSEGNLQIHHVGQDGQVLQGAQLIAVASSDPAAAGVDGSPLQGSDIQVQYVQLAPVSDHTAGAQTAEALQPTLQPEMQLEHGAIQIQ
# partner: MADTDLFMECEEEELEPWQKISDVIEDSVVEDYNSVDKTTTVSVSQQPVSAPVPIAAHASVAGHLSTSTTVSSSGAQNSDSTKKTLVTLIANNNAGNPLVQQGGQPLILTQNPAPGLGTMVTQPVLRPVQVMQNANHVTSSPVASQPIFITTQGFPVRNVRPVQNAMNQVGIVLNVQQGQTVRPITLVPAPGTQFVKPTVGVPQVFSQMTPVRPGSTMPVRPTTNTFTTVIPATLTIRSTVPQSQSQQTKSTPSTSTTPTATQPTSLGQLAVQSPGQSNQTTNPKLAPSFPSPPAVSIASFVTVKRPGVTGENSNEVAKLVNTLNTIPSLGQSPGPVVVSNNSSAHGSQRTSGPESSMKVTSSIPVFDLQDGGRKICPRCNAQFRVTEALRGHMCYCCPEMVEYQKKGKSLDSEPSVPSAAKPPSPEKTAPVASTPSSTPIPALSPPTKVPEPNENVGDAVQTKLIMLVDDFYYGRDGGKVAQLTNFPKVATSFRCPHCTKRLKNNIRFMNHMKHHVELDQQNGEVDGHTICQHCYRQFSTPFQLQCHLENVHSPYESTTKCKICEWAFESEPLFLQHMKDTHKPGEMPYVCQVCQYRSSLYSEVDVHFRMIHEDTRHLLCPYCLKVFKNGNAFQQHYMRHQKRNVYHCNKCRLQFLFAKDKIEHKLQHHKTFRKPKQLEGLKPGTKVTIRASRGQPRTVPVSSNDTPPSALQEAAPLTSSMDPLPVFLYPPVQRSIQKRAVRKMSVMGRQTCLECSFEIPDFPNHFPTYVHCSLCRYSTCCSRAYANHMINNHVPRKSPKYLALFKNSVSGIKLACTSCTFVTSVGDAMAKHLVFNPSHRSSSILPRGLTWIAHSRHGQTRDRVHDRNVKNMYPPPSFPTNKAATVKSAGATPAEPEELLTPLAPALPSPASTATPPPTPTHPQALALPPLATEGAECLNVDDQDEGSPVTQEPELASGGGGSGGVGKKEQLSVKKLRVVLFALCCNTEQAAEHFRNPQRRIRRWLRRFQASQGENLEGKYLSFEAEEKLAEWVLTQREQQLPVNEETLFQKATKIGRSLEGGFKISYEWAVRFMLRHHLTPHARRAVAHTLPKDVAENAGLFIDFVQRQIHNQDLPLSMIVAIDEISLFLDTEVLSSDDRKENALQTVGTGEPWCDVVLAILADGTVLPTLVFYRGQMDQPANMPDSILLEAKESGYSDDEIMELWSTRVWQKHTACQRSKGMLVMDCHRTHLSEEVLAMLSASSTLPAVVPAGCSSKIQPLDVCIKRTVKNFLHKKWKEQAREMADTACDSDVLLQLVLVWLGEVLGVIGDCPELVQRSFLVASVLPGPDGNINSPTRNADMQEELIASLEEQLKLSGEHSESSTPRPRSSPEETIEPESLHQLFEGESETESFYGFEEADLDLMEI
# B5: Kinesin-like protein KIF20A (Homo sapiens), O95235 (parent)
# chain: MSQGILSPPAGLLSDDDVVVSPMFESTAADLGSVVRKNLLSDCSVVSTSLEDKQQVPSEDSMEKVKVYLRVRPLLPSELERQEDQGCVRIENVETLVLQAPKDSFALKSNERGIGQATHRFTFSQIFGPEVGQASFFNLTVKEMVKDVLKGQNWLIYTYGVTNSGKTHTIQGTIKDGGILPRSLALIFNSLQGQLHPTPDLKPLLSNEVIWLDSKQIRQEEMKKLSLLNGGLQEEELSTSLKRSVYIESRIGTSTSFDSGIAGLSSISQCTSSSQLDETSHRWAQPDTAPLPVPANIRFSIWISFFEIYNELLYDLLEPPSQQRKRQTLRLCEDQNGNPYVKDLNWIHVQDAEEAWKLLKVGRKNQSFASTHLNQNSSRSHSIFSIRILHLQGEGDIVPKISELSLCDLAGSERCKDQKSGERLKEAGNINTSLHTLGRCIAALRQNQQNRSKQNLVPFRDSKLTRVFQGFFTGRGRSCMIVNVNPCASTYDETLHVAKFSAIASQLVHAPPMQLGFPSLHSFIKEHSLQVSPSLEKGAKADTGLDDDIENEADISMYGKEELLQVVEAMKTLLLKERQEKLQLEMHLRDEICNEMVEQMQQREQWCSEHLDTQKELLEEMYEEKLNILKESLTSFYQEEIQERDEKIEELEALLQEARQQSVAHQQSGSELALRRSQRLAASASTQQLQEVKAKLQQCKAELNSTTEELHKYQKMLEPPPSAKPFTIDVDKKLEEGQKNIRLLRTELQKLGESLQSAERACCHSTGAGKLRQALTTCDDILIKQDQTLAELQNNMVLVKLDLRKKAACIAEQYHTVLKLQGQVSAKKRLGTNQENQQPNQQPPGKKPFLRNLLPRTPTCQSSTDCSPYARILRSRRSPLLKSGPFGKKY
# partner: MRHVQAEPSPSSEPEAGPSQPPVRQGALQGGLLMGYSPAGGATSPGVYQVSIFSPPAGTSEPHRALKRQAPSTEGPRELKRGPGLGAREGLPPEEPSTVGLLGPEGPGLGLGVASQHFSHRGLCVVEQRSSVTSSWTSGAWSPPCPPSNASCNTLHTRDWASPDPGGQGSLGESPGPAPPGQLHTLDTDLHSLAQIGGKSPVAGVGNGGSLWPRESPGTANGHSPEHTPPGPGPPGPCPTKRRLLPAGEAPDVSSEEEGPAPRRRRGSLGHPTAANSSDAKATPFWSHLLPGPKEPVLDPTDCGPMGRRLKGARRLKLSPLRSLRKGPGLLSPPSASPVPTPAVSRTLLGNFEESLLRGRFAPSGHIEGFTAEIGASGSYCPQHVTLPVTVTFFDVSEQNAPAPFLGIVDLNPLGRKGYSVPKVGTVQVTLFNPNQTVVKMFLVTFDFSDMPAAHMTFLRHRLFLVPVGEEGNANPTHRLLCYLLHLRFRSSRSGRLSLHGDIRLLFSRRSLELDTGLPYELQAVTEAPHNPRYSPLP
# B6: Cyclin-D1-binding protein 1 (Homo sapiens), O95273 (parent)
# chain: MASATAPAAAVPTLASPLEQLRHLAEELRLLLPRVRVGEAQETTEEFNREMFWRRLNEAAVTVSREATTLTIVFSQLPLPSPQETQKFCEQVHAAIKAFIAVYYLLPKDQGITLRKLVRGATLDIVDGMAQLMEVLSVTPTQSPENNDLISYNSVWVACQQMPQIPRDNKAAALLMLTKNVDFVKDAHEEMEQAVEECDPYSGLLNDTEENNSDNHNHEDDVLGFPSNQDLYWSEDDQELIIPCLALVRASKACLKKIRMLVAENGKKDQVAQLDDIVDISDEISPSVDDLALSIYPPMCHLTVRINSAKLVSVLKKALEITKASHVTPQPEDSWIPLLINAIDHCMNRIKELTQSELEL
# partner: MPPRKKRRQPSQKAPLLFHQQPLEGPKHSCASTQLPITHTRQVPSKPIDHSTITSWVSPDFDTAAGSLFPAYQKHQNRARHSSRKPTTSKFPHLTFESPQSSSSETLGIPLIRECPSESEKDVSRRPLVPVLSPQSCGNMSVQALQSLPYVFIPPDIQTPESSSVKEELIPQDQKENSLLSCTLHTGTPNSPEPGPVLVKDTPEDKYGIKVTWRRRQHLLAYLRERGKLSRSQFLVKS
# Variants of: B1
# Conditions: with hsfy1_human HSFY1, Q96LI6
row,Variant,effect of a mutation on the interaction
1,D53N,with no effect

# Variants of: B2
# Conditions: with npm2_human NPM2, Q86SE8
row,Variant,effect of a mutation on the interaction
1,E149K,with no effect

# Variants of: B3
# Conditions: with dnal4_human DNAL4, O96015
row,Variant,effect of a mutation on the interaction
1,N33S,with no effect

# Variants of: B4
# Conditions: with pogz_human POGZ
row,Variant,effect of a mutation on the interaction
1,A162V,with no effect

# Variants of: B5
# Conditions: with atosb_human ATOSB
row,Variant,effect of a mutation on the interaction
1,S44F,disrupting interaction strength

# Variants of: B6
# Conditions: with rhno1_human RHNO1, Q9BSD3
row,Variant,effect of a mutation on the interaction
1,I277T,disrupting interaction strength
